In PMC9907207 (2023):

Biological target: SARS-CoV-2 RBD (residues 319-541), ancestral strain (SARS-CoV-2, UniProt P0DTC2 319-541)
Test: BLI

B1: GAR12, human IgG1 monoclonal antibody (antibody, V domains shown)
VH: EVQLVQSGGGLVQPGGSLRLSCAASGFTFSSYAMSWVRQAPGKGLEWVLSISGSGGSTYYADSVKGRFTISIDNSKKTVYLQMNSLRAEDTAVYYCAKSGEQQLVQAEYFHHWGQGTLVTVSS
VL: DIQMTQSPSTLSASVGDRVTITCRASQSIGRWLAWYQQKPGKAPKLLIYDASSLESGVPSRFSGSGFGTEFTLTISSLQPDDFATYYCQQCDSLLTFGGGTKLEIK
modifications: biotin (EZ-Link NHS-PEG4-Biotin, 10:1) where loaded on the sensor
- Kd: 0.2 nM

B2: GAR03, human IgG1 monoclonal antibody (antibody, V domains shown)
VH: QVQLVQSGAEVKKPGASVKVSCKASGYTFSSYDINWVRQAPGQGLEWMGWMSPNSGNTGYAQKFQGRVTMTRSTSMSTAYMELSSLRSEDTAVYFCARMSSSLTNYLDYWGQGTLVTVSS
VL: SYVLTQPPSVAVAPGQTARIRCGENDIGSKNVHWYQQKSGQAPVLVVYDDSDRPSGIPERFSGSNSGNTATLTISRVEAGDEADYYCQVWDSTGDHPDVVFGGGTKLTVL
modifications: biotin (EZ-Link NHS-PEG4-Biotin, 10:1) where loaded on the sensor
- Kd: 0.31 nM
